Consider one substance from publication PMC11289878.

The target in the test is B-isoform of human insulin receptor (hIR-B) (human) (UniProt P06213).
Sequence of UniProt P06213 (P06213 28-1382): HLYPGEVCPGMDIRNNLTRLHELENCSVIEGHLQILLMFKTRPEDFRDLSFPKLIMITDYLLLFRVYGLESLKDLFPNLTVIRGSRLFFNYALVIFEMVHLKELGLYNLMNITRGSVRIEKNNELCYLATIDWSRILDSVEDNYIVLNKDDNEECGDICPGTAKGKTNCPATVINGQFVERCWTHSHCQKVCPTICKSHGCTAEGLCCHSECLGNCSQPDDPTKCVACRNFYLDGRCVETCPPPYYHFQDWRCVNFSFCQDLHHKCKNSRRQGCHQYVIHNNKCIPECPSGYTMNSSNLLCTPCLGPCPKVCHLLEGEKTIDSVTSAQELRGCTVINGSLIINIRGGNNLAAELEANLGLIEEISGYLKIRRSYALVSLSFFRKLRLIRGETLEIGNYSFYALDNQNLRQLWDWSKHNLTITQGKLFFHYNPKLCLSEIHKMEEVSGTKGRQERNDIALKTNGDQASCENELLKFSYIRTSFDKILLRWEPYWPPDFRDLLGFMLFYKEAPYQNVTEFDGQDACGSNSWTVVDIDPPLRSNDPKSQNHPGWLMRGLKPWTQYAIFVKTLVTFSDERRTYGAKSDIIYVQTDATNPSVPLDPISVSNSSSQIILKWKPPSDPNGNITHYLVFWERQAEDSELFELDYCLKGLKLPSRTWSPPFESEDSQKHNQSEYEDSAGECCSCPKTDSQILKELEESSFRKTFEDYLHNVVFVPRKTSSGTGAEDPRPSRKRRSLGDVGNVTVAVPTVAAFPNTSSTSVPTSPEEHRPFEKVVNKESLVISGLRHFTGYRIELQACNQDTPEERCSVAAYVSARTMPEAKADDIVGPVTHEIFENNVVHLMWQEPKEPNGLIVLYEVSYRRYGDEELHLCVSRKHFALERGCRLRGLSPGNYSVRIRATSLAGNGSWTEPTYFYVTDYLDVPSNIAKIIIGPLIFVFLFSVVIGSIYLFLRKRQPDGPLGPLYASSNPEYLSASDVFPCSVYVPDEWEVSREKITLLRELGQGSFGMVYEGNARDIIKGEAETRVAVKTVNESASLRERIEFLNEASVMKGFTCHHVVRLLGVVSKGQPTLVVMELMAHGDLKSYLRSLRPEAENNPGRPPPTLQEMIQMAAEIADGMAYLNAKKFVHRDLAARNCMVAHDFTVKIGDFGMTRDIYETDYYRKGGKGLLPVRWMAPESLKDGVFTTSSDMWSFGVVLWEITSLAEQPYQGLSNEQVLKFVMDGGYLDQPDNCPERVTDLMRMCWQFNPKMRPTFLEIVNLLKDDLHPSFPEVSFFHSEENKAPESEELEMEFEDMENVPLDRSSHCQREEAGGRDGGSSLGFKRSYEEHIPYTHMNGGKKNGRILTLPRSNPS

In turn, LY3209590 (Fc fusion) gave an EC50 (nM) of insulin receptor Y1158 phosphorylation, HEK293 cells overexpressing hIR-B, 0% HSA of 50 nM; an EC50 (nM) of insulin receptor Y1158 phosphorylation, HEK293 cells overexpressing hIR-B, 1% HSA of 83 nM; a Rel. potency (%) to human insulin standard in the same assay, insulin receptor Y1158 phosphorylation, 0% HSA of 1.4%; a Rel. potency (%) to human insulin standard in the same assay, insulin receptor Y1158 phosphorylation, 1% HSA of 1.5%.
